In series [1] the target is human insulin receptor isoform B (human) (UniProt P06213). The series can be described thus: cell-based or functional assay.
The target is the same in series [2]. The series can be described thus: SPA competition with 100 pM [125I]-human insulin, membranes of CHO cells overexpressing IR.
The nature of series [3]: Storage stability of the activated sulfonamide. Format: physicochemical. To be noted: acetonitrile solution under argon, 2 to 8° C. The method, then:
32.5 g 2-[2-[2-[[2-[2-[2-[[2-[[4-(16-tert-butoxy-16-oxo-hexadecoxy)phenyl]sulfonylamino]-pyrimidine-5-carbonyl]amino]ethoxy]ethoxy]acetyl]amino]ethoxy]ethoxy]acetic acid (sticky syrup) was dissolved in 305 ml dry acetonitrile. 305 ml dry ethyl acetate under an argon layer, 16.25 g (63.4 mmol) N,N-disuccinimidylcarbonat and 3.25 g (26.6 mmol) dimethylaminopyridine was added under stirring at room temperature (25° C.). After 90 minutes, the solvent was distilled off using a rotary evaporator and the remaining oily product was dissolved in 1.5 liters of ethyl acetate. The ethyl acetate solution was extracted three times, each time with 300 ml 0.1 N HCl and 300 ml saturated NaCl solution. The solvent was distilled off using a rotary evaporator, leaving again an oily product. The oily product was dissolved in 0.5 liters of ethyl acetate, the precipitated NaCl was filtered off and the ethyl acetate was distilled off. Next, 0.5 liters of ethyl acetate was added and the solvent was distilled off using a rotary evaporator. […] Yield in the acetonitrile solution was calculated from HPLC data as 78% based on the amount of 2-[2-[2-[[2-[2-[2-[[2[[4-(16-tert-butoxy-16-oxo-hexadecoxy)phenyl]sulfonylamino]-pyrimidine-5-carbonyl]amino]ethoxy]ethoxy]acetyl]amino]ethoxy]ethoxy]acetic acid used. […]

In series [1], “Glu(A14)Gly(A21)Glu(B3)Val(B25)Des(B30)-Insulin (ligand)” had an Autophosphorylation activity (relative to human insulin) of 0.03. In series [2], this compound came in with an Insulin-receptor binding affinity (relative to human insulin) (relative to human insulin) of 0.02.

In series [1], Glu(A14)Des(B30)-Insulin (ligand) gave an Autophosphorylation activity (relative to human insulin) of 0.87. On the same count and under the same terms, the figure for “His(B16)His(B25)Des(B30)-Insulin (ligand)” is 0.1; for Leu(B16)Des(B30)-Insulin (ligand) it is 0.34. With “Glu(A14)Gly(A21)Val(B16)Trp(B25)Des(B30)-Insulin (ligand)”, the Autophosphorylation activity (relative to human insulin) in series [1] turned out to be 0.23. Further, in series [2], the Insulin-receptor binding affinity (relative to human insulin) (relative to human insulin) stood at 0.17.

In turn, Ala(B25)-Insulin (ligand) had an Autophosphorylation activity (relative to human insulin) in series [1] of 0.2. On to “Glu(A14)Gly(A21)Trp(B16)Des(B30)-Insulin (ligand)”, for which, in series [1], the Autophosphorylation activity (relative to human insulin) came to 0.38. Further, the Insulin-receptor binding affinity (relative to human insulin) (relative to human insulin) in series [2] amounted to 0.63. Take “Glu(A14)Glu(B3)Val(B16)Val(B25)Des(B30)-Insulin (ligand)”: in series [1], the Autophosphorylation activity (relative to human insulin) was found to be 0.02.

The compound “Gly(A21)Trp(B16)Des(B30)-Insulin (ligand)” showed an Autophosphorylation activity (relative to human insulin) in series [1] of 0.4. This compound registered an Insulin-receptor binding affinity (relative to human insulin) (relative to human insulin) in series [2] of 0.57. In turn, “Glu(A14)Glu(B3)Ile(B16)Ile(B25)Des(B30)-Insulin (ligand)” showed an Autophosphorylation activity (relative to human insulin) in series [1] of 0.01. “Glu(A14)Gly(A21)Glu(B3)Ile(B16)Val(B25)Des(B30)-Insulin (ligand)”: the Autophosphorylation activity (relative to human insulin) in series [1] turned out to be 0.02. This compound had an Insulin-receptor binding affinity (relative to human insulin) (relative to human insulin) in series [2] of 0.01.

“Glu(A14)Gly(A21)Glu(B3)Val(B16)Trp(B25)Des(B30)-Insulin (ligand)” came in with an Autophosphorylation activity (relative to human insulin) in series [1] of 0.19. For the same compound, in series [2], the Insulin-receptor binding affinity (relative to human insulin) (relative to human insulin) amounted to 0.21.

Consider `O=C(O)CCCCCCCCCCCCCCCOc1ccc(S(=O)(=O)Nc2ncc(C(=O)NCCOCCOCC(=O)NCCOCCOCC(=O)ON3C(=O)CCC3=O)cn2)cc1` [16-[4-[[5-[2-[2-[2-[2-[2-[2-(2,5-dioxopyrrolidin-1-yl)oxy-2-oxo-ethoxy]ethoxy]ethylamino]-2-oxo-ethoxy]ethoxy]ethylcarbamoyl]pyrimidin-2-yl]sulfamoyl]phenoxy]hexadecanoate], for which the stability in solution result in series [3] is listed as “less than 3 days”.

Take “Glu(A14)Glu(B16)His(B25)Des(B30)-Insulin (ligand)”: the Autophosphorylation activity (relative to human insulin) in series [1] was 0.07. Moreover, in series [2], the Insulin-receptor binding affinity (relative to human insulin) (relative to human insulin) was determined as 0.01. In series [1], “Glu(A14)Ile(B16)Des(B30)-Insulin (ligand)” came in with an Autophosphorylation activity (relative to human insulin) of 0.18. Further, the Insulin-receptor binding affinity (relative to human insulin) (relative to human insulin) in series [2] was found to be 0.23. In series [1], “Glu(A14)Val(B25)Des(B30)-Insulin (ligand)” showed an Autophosphorylation activity (relative to human insulin) of 0.04. Compound Leu(B25)Des(B30)-Insulin (ligand) showed an Autophosphorylation activity (relative to human insulin) in series [1] of 0.06. His(B25)Des(B30)-Insulin (ligand) yielded an Autophosphorylation activity (relative to human insulin) in series [1] of 0.31. In the case of “Glu(A14)Glu(B3)Val(B16)Des(B30)-Insulin (ligand)”, the Autophosphorylation activity (relative to human insulin) in series [1] is 0.28. The compound further displayed an Insulin-receptor binding affinity (relative to human insulin) (relative to human insulin) in series [2] of 0.4.

“Glu(A14)Gly(A21)Trp(B25)Des(B30)-Insulin (ligand)”: in series [1], the Autophosphorylation activity (relative to human insulin) came to 0.37. “Glu(A14)Val(B16)Val(B25)Des(B30)-Insulin (ligand)”: in series [1], the Autophosphorylation activity (relative to human insulin) amounted to 0.03.

“Glu(A14)Gly(A21)Glu(B3)Ile(B16)Trp(B25)Des(B30)-Insulin (ligand)” had an Autophosphorylation activity (relative to human insulin) in series [1] of 0.13. Also, the Insulin-receptor binding affinity (relative to human insulin) (relative to human insulin) in series [2] stood at 0.12. For “Glu(A14)Gly(A21)Glu(B3)Val(B16)Val(B25)Des(B30)-Insulin (ligand)”, in that order: 0.01 and 0.01. Val(B16)Des(B30)-Insulin (ligand) came in with an Autophosphorylation activity (relative to human insulin) in series [1] of 0.32. Compound “Glu(A14)His(B16)Des(B30)-Insulin (ligand)” returned an Autophosphorylation activity (relative to human insulin) in series [1] of 0.29. This compound had an Insulin-receptor binding affinity (relative to human insulin) (relative to human insulin) in series [2] of 0.36.

Consider “Glu(A14)Val(B16)Des(B30)-Insulin (ligand)”, for which the Autophosphorylation activity (relative to human insulin) in series [1] is 0.32.

In turn, “Glu(A14)Leu(B16)Ala(B25)Des(B30)-Insulin (ligand)” showed an Autophosphorylation activity (relative to human insulin) in series [1] of 0.04. For the same compound, the Insulin-receptor binding affinity (relative to human insulin) (relative to human insulin) in series [2] worked out at 0.01. On to Ala(B25)Des(B30)-Insulin (ligand), for which, in series [1], the Autophosphorylation activity (relative to human insulin) is 0.17.

In series [1], “Glu(A14)Ile(B25)Des(B30)-Insulin (ligand)” gave an Autophosphorylation activity (relative to human insulin) of 0.04. “Glu(A14)His(B16)His(B25)Des(B30)-Insulin (ligand)” displayed an Autophosphorylation activity (relative to human insulin) in series [1] of 0.11. The Insulin-receptor binding affinity (relative to human insulin) (relative to human insulin) in series [2] was determined as 0.12. In turn, Val(B25)Des(B30)-Insulin (ligand) returned an Autophosphorylation activity (relative to human insulin) in series [1] of 0.06. In series [1], “Glu(A14)Val(B16)Ile(B25)Des(B30)-Insulin (ligand)” yielded an Autophosphorylation activity (relative to human insulin) of 0.01. “Gly(A21)Trp(B16)Trp(B25)Des(B30)-Insulin (ligand)” gave an Autophosphorylation activity (relative to human insulin) in series [1] of 0.38. In addition, the Insulin-receptor binding affinity (relative to human insulin) (relative to human insulin) in series [2] was found to be 0.43. For the compound “Gly(A21)Trp(B16)His(B25)Des(B30)-Insulin (ligand)”, the Autophosphorylation activity (relative to human insulin) in series [1] is 0.35. Moreover, in series [2], the Insulin-receptor binding affinity (relative to human insulin) (relative to human insulin) came out at 0.4. “Glu(A14)Ile(B16)Val(B25)Des(B30)-Insulin (ligand)” came in with an Autophosphorylation activity (relative to human insulin) in series [1] of 0.04.

The values above are taken from patent publication US20230346949A1, “A METHOD OF FORMING A CONJUGATE OF A SULFONAMIDE AND A POLYPEPTIDE” (SANOFI, priority 2019, published 2023).
